The test addresses T1, HLA-B*44:05 (human).
T1 construct: also called peptide-receptive MHC class I molecule
As to the kind of experiment: UV peptide exchange, anti-b2m ELISA. As to the method: Only peptide candidates that can effectively bind and stabilize the peptide-receptive MHC molecules prevent dissociation of the MHC complexes. To determine the yield of the exchange reaction, an ELISA was performed based on the detection of the light chain (β2m) of stabilized MHC complexes. The assay was performed as generally described in Rodenko et al. (Rodenko et al., 2006)
96 well MAXISorp plates (NUNC) were coated over night with 2 ug/ml streptavidin in PBS at room temperature, washed 4× and blocked for 1 h at 37° C. in 2% BSA containing blocking buffer. […] Peptide-MHC monomers of the UV-exchange reaction were diluted 100-fold in blocking buffer. Samples were incubated for 1 h at 37° C., washed four times, incubated with 2 ug/ml HRP conjugated anti-β2m for 1 h at 37° C., washed again and detected with TMB solution that is stopped with […]. Absorption was measured at 450 nm.
(ELISA stands for enzyme-linked immunosorbent assay.)

Peptide exchange yield data for 64 molecules are collected here from patent US20200087363A1 (IMMATICS BIOTECHNOLOGIES, published 2020).

B1: HENLIEDF (peptide)
peptide: HENLIEDF
Consider B1, for which the peptide exchange yield was 50 to 75%.

B2: DEDGKIVGY (peptide)
peptide: DEDGKIVGY
In turn, B2 showed a peptide exchange yield of 20 to 50%.

B3: NESDRLVYF (peptide)
peptide: NESDRLVYF
The molecule B3 displayed a peptide exchange yield of 50 to 75%.

B4: EAYDIELNKW (peptide)
peptide: EAYDIELNKW
B4: the peptide exchange yield is 50 to 75%.

B5: SEASQSPQY (peptide)
peptide: SEASQSPQY
B5: the peptide exchange yield was 50 to 75%.

B6: AETEPERHLG (peptide)
peptide: AETEPERHLG
Consider B6, for which the peptide exchange yield lay in the range of 20 to 50%.

B7: TEDARHPESW (peptide)
peptide: TEDARHPESW
Take B7: the peptide exchange yield was over 75%.

B8: NEAGEMIKHY (peptide)
peptide: NEAGEMIKHY
The molecule B8 registered a peptide exchange yield of 20 to 50%.

B9: EEQDFINNRY (peptide)
peptide: EEQDFINNRY
B9: the peptide exchange yield was over 75%.

B10: AEDEDGKIVGY (peptide)
peptide: AEDEDGKIVGY
B10 came in with a peptide exchange yield of 20 to 50%.

B11: HEIIIRSHW (peptide)
peptide: HEIIIRSHW
B11 returned a peptide exchange yield of 50 to 75%.

B12: LEVLHQGQW (peptide)
peptide: LEVLHQGQW
On to B12, for which the peptide exchange yield lay in the range of 50 to 75%.

B13: KESDAGRYY (peptide)
peptide: KESDAGRYY
Molecule B13 returned a peptide exchange yield of 50 to 75%.

B14: KESDAGKYY (peptide)
peptide: KESDAGKYY
Molecule B14 registered a peptide exchange yield of 50 to 75%.

B15: VEVNGVPRW (peptide)
peptide: VEVNGVPRW
B15 returned a peptide exchange yield of over 75%.

B16: AEIATTGQLY (peptide)
peptide: AEIATTGQLY
Consider B16, for which the peptide exchange yield was in the range of 50 to 75%.

B17: AEIEADRSYQH (peptide)
peptide: AEIEADRSYQH
In the case of B17, the peptide exchange yield fell in the range of 50 to 75%.

B18: IEIILLSGSL (peptide)
peptide: IEIILLSGSL
Turning to B18, the peptide exchange yield was over 75%.

B19: KEVDPASNTYTL (peptide)
peptide: KEVDPASNTYTL
As to B19, the peptide exchange yield was in the range of 20 to 50%.

B20: EVEVGEVKSW (peptide)
peptide: EVEVGEVKSW
Molecule B20 gave a peptide exchange yield of 10 to 20%.

B21: AEANPRDLGASW (peptide)
peptide: AEANPRDLGASW
B21: the peptide exchange yield is 50 to 75%.

B22: IEAYLERIGY (peptide)
peptide: IEAYLERIGY
As for B22, the peptide exchange yield lay in the range of 50 to 75%.

B23: IEIKDRLQL (peptide)
peptide: IEIKDRLQL
As for B23, the peptide exchange yield was 50 to 75%.

B24: EELRMLSF (peptide)
peptide: EELRMLSF
Take B24: the peptide exchange yield fell in the range of 20 to 50%.

B25: GESSEVKAVL (peptide)
peptide: GESSEVKAVL
For B25, the peptide exchange yield is 50 to 75%.

B26: SEVPVDSHY (peptide)
peptide: SEVPVDSHY
B26 had a peptide exchange yield of 50 to 75%.

B27: REYQEVMNSKL (peptide)
peptide: REYQEVMNSKL
B27: the peptide exchange yield lay within 50 to 75%.

B28: VEAQDRETW (peptide)
peptide: VEAQDRETW
As for B28, the peptide exchange yield was 20 to 50%.

B29: VTEGAVEVKY (peptide)
peptide: VTEGAVEVKY
Consider B29, for which the peptide exchange yield fell in the range of 10 to 20%.

B30: RMLSFQQMTW (peptide)
peptide: RMLSFQQMTW
The molecule B30 came in with a peptide exchange yield of 20 to 50%.

B31: EEIEAHIAL (peptide)
peptide: EEIEAHIAL
B31 gave a peptide exchange yield of 50 to 75%.

B32: NENLDYAIL (peptide)
peptide: NENLDYAIL
B32 came in with a peptide exchange yield of over 75%.

B33: MEAELVRRI (peptide)
peptide: MEAELVRRI
Regarding B33, the peptide exchange yield lay within 50 to 75%.

B34: GESVSWHLF (peptide)
peptide: GESVSWHLF
In turn, B34 showed a peptide exchange yield of 50 to 75%.

B35: SEVFHVSEA (peptide)
peptide: SEVFHVSEA
B35 came in with a peptide exchange yield of 20 to 50%.

B36: MEELRMLSF (peptide)
peptide: MEELRMLSF
In turn, B36 showed a peptide exchange yield of 50 to 75%.

B37: SEVPVDSHYY (peptide)
peptide: SEVPVDSHYY
Regarding B37, the peptide exchange yield fell in the range of 50 to 75%.

B38: RYFDENIQKFIW (peptide)
peptide: RYFDENIQKFIW
In turn, B38 gave a peptide exchange yield of 50 to 75%.

B39: EEVQDGKVI (peptide)
peptide: EEVQDGKVI
The molecule B39 had a peptide exchange yield of 20 to 50%.

B40: QEPFTRPVL (peptide)
peptide: QEPFTRPVL
For the molecule B40, the peptide exchange yield lay in the range of 50 to 75%.

B41: KEVDPTGHSF (peptide)
peptide: KEVDPTGHSF
For the molecule B41, the peptide exchange yield fell in the range of 50 to 75%.

B42: IEAPKLMVV (peptide)
peptide: IEAPKLMVV
Molecule B42 yielded a peptide exchange yield of 10 to 20%.

B43: RESHLTEIRQY (peptide)
peptide: RESHLTEIRQY
In turn, B43 registered a peptide exchange yield of 20 to 50%.

B44: KEAPNIVTL (peptide)
peptide: KEAPNIVTL
For the molecule B44, the peptide exchange yield was over 75%.

B45: EMPGGPVW (peptide)
peptide: EMPGGPVW
The molecule B45 registered a peptide exchange yield of 50 to 75%.

B46: TEHSGIYSC (peptide)
peptide: TEHSGIYSC
As for B46, the peptide exchange yield lay in the range of 20 to 50%.

B47: AESDFSNNML (peptide)
peptide: AESDFSNNML
The molecule B47 showed a peptide exchange yield of 50 to 75%.

B48: SEIYQPRGF (peptide)
peptide: SEIYQPRGF
Regarding B48, the peptide exchange yield was 50 to 75%.

B49: EEMPEEIHL (peptide)
peptide: EEMPEEIHL
Consider B49, for which the peptide exchange yield lay within 50 to 75%.

B50: QEIDQKRLEF (peptide)
peptide: QEIDQKRLEF
The molecule B50 yielded a peptide exchange yield of 20 to 50%.

B51: EEAMKRLSY (peptide)
peptide: EEAMKRLSY
Consider B51, for which the peptide exchange yield lay in the range of 20 to 50%.

B52: TELQIPSF (peptide)
peptide: TELQIPSF
In the case of B52, the peptide exchange yield fell in the range of 20 to 50%.

B53: SQDVAGTTF (peptide)
peptide: SQDVAGTTF
Take B53: the peptide exchange yield lay within 20 to 50%.

B54: VEEERYTGQW (peptide)
peptide: VEEERYTGQW
As for B54, the peptide exchange yield lay in the range of 50 to 75%.

B55: VEVKYEGHW (peptide)
peptide: VEVKYEGHW
For the molecule B55, the peptide exchange yield was over 75%.

B56: SEKWFRMGF (peptide)
peptide: SEKWFRMGF
B56: the peptide exchange yield was 50 to 75%.

B57: QELFLHPVL (peptide)
peptide: QELFLHPVL
Turning to B57, the peptide exchange yield is over 75%.

B58: EKGLISAF (peptide)
peptide: EKGLISAF
The molecule B58 displayed a peptide exchange yield of 20 to 50%.

B59: MEFKTLNKN (peptide)
peptide: MEFKTLNKN
Consider B59, for which the peptide exchange yield lay within 20 to 50%.

B60: QEIDRGQYI (peptide)
peptide: QEIDRGQYI
Consider B60, for which the peptide exchange yield is over 75%.

B61: AESFTSGRHYW (peptide)
peptide: AESFTSGRHYW
Consider B61, for which the peptide exchange yield is over 75%.

B62: YENIPVDKV (peptide)
peptide: YENIPVDKV
The molecule B62 returned a peptide exchange yield of 50 to 75%.

B63: TELTEARVQVW (peptide)
peptide: TELTEARVQVW
For B63, the peptide exchange yield lay within 50 to 75%.

B64: DEINHQSL (peptide)
peptide: DEINHQSL
With B64, the peptide exchange yield lay in the range of 20 to 50%.
